Target: T1, cynomolgus monkey CD19 (cCD19) (cynomolgus monkey)
T1 construct: Expressed on transiently transfected 293 cells
T1 chain: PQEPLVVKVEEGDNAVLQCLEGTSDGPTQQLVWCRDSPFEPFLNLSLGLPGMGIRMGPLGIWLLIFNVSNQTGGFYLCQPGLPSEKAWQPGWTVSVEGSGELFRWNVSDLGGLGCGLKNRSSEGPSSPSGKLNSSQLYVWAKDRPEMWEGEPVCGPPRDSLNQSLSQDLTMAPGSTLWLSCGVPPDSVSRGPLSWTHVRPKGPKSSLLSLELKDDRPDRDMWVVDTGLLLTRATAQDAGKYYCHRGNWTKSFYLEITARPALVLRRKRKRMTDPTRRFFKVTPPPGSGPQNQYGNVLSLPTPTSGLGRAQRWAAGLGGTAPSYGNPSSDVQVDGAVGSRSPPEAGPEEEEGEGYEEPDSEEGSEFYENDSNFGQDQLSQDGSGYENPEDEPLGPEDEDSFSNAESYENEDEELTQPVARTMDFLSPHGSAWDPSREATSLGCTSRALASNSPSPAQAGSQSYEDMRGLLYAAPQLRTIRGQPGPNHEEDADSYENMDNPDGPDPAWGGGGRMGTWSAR
Assay: flow cytometry on transfected 293 cells
Protocol: In brief, first, the expression of CD19 protein was identified.
Binding to GFP-positive cells was analyzed on the basis of mean fluorescence intensity (MFI).

B1: CD19_12.18 antibody (scFv, V domains shown)
VH: AVTLDESGGGLQTPGGALSLVCKASGFTFSSYDMGWVRQAPGKGLEFVAGIDDDGRYTSYGSAVDGRATISRDNGQSTVRLQLNNLRAEDTATYYCTRGNAGWIDAWGHGTEVIVSS
VL: LTQPSSVSANPGETVKITCSGGYSSYYGWYQQKSPGSAPVTLIYESNKRPSDIPSRFSGSASGSTATLTITGVQVEDEAVYYCGGWDSTHAGIFGAGTTLTVLG
notes: Chicken-derived antibody, tested as an Fc fusion (Anti-CD19 scFv-Fc) made in FreeStyle 293F cells; also called CD19_1218-Fc; Anti-CD19 scFv-Fc
Q: Does B1 bind?
A: no binding

From US20230099646A1 (published 2023)
